Results from paper PMC11195132.
Where two headings read alike, the source gives them in different places.

Legend:
[1] = target: tSH2 domain of SYK (residues M6-N269) fused to an N-terminal 6xHis tag (UniProt P43405); assay: FRET or BRET
[2] = target: tSH2 domain of SYK (residues M6-N269) fused to an N-terminal 6xHis tag (UniProt P43405); assay: FRET or BRET; remark: listed apart in the source

In the case of “unlabeled FCER1G-phospho-peptide (from UniProt P30273 54-82)”, the IC50 [1] is reported as 5 nM and the IC50 [2] is reported as 5 nM.
